US20260258115A1

B1: ADI-41144 (antibody, V domains shown)
VH: EVQLVQSGAEVKKPGGSVKVSCKASGYTFSEYYMHWVRQAPGQGPEWVGRINPKSGRTNYAQNFQGRVTMTRDRSISTVYMDLSRLRSDDTAVYYCARWEVMDYGSGIYYNQDHFDYWGQGTLVTVSS
VL: DIRVTQSPSSLSASVGDRVTITCRASQDITNYLAWFQQKPGKAPKSLMYAASTLQSGVPSRFSGSGSGTDFTLTISSLQPEDFATYYCQQYKTYPITFGQGTRLEIK
B2: ADI-41146 (antibody, V domains shown)
VH: QVQLVQSGAEVKKPGESLKISCKGSGHSFATFWIGWVRQVPGNGLELMGIINLGDSDTKYSPSFQGQVTISADESIGTAYLQWSSLKASDTAMYYCARVSLPHYYYYMDVWGKGTTVTVSS
VL: DIVMTQSPSSVSASVGDRVTITCRASQGISTWLAWYRQKPGKAPELLIYAASRLQSGVPSRFSGSGSGTDFTLTISSLQPEDFATYYCQQANSFLGAFGPGTKLEIK
B3: ADI-41149 (antibody, V domains shown)
VH: QVQLVQSGGGVVQPGRSLRLSCAASGFTFSDYGMHWVRQAPGKGLEWVAVIWFDGSNKNYADSVKGRFTISRDNSMNTLYLQMNNLRAEDTAVYYCARAPYSFWSGYYLDYWGQGSLVTVSS
VL: DIVMTQSPATLSVSPGERATLSCRASQSISSNLAWYQQKSGQAPRLLIYGASTRATGIPARFSGSGSGTEFTLTISSLQSEDFAVYSCQQYSKWPQTFGQGTKVEIK
B4: ADI-41153 (antibody, V domains shown)
VH: EVQLVESGGGLVKPGGSLRLSCAASQFTFSTYDMSWVRQAPGKGLEWVASISSGSTYIYYADSVKGRFTISRDNAKHSLFLQMKSLRAEDTALYYCARQVLYDRGGYYLYYFDHWGQGTLVTVSS
VL: DIQVTQSPSSLSASVGDRVTITCRASQTIASYLNWYQQKPGKAPNLLIYAASNLQSGVPSRFSGSGSGTEFTLTINTLQPEDFATYYCQQSYNFPYTFGQGTKVEIK
B5: ADI-41154 (antibody, V domains shown)
VH: QVQLQQWGAGLSKPSETLSVTCAVYGGSLSGHYWSWFRQPPGKGLEWIGEIDHSGSTTYNPSLKSRVTISVDTSKNQFSLKLTSVTAADTAMYYCARATRYNYGYTFDYWGQGTLVTVSS
VL: DIPLTQSPSSLSASVGDRVTITCRASQIISSYLNWYQQKPGKAPKLLIYAASTLQSGVPSRFSGSRSGTDFTLTISSLQPEDFASYYCQQSYIIPFTFGPGTKVEIK
B6: ADI-41155 (antibody, V domains shown)
VH: QVQLQESGPGLVKPSETLSLTCTVSGGSIGNNFYYWGWIRQPPGKGLEWIGSIYYSGTTYDNPSLKSRVTISVEPSKNQFSLKLSSVTAADTAVYHCARRYCDSTRCYEAFDIWGQGTTVTVSS
VL: SYELTQPPSASGTPGQRVTISCSGSSSNIGSNYVSWYQQLPGTAPKLLIYKNDQRPSGVPDRFSGSKSGTSASLAISGLRSEDEAEYYCAAWDDSLSGFYVFGTGTKVTVL
B7: ADI-41156 (antibody, V domains shown)
VH: QVQLVQSGGGLVQPGGSLRLSCVASGFIFSSYEMNWVRQAPGKGLEWVSYISSSGSTIYYADSVKGRFTISRDNAKNSLYLQMNSLGAEDTAVYYCARAILYFDYWGQGTLVTVSS
VL: GIRLTQSPSSLSASVGDRVTITCRASQSITNYINWYQQKPGKAPKLLIYAISRLQSGVPSRFSGSGSGTDFTLTISSLQPEDFATYYCQQSYSTMYTFGQGTKVEIK
B8: ADI-41159 (antibody, V domains shown)
VH: EVQLVESGAEVKKPGESLKISCKGSGYSFTTYWIGWVRQMPGKGLEWMGIMYPGDSQTRYSPSFQGQVTISADKSISTAYLQWSSLKASDTAMYYCARGGYCSGGSCYRGLDYWGQGTLVTVSS
VL: EIVMTQSPSSLSASVGDRVTITCRASQSISSFLNWYQQKPGKAPNLLIYAASSLLSGVPSRFSGSGSGTDFTLTISSLQPEDFATYYCQQSHSTPQTFGQGTKLEIK
B9: ADI-41160 (antibody, V domains shown)
VH: QVQLVQSGAEVKKPGSSVKVSCKASGGTFSSYPIIWVRQAPGQGLEWMGRIIPILGIASYAQKFQGRVTITADKSTSTAYMELSSLRSEDTAVYYCARNSDFYYGMDVWGQGTTVTVSS
VL: QSALIQPASVSGSPGQSITISCTGTSSDVGGYNYVSWYQHHPGKAPKLMIYDVSNRPSGISNRFSGSKSGNTASLTISGLQAEDEADYYCSSYTSSSLYVFGTGTKVTVL
B10: ADI-41161 (antibody, V domains shown)
VH: EVQLVESGGGLVQPGGSLRLSCAASGFTFSTFEFNWVRQAPGKGLEWLSYISSDDTTRYYADSVKGRFTISRDNAKNSLYLQMNSLRAEDTAYYYCVRGGPYDYVWGTYRYFDFWGQGTLVTVSS
VL: QSVLTQPASVSGSPGQSITISCTGTSSDIGGYNYVSWYQQHPGKAPKLMIYDVTNRPLGVSNRFSGSKSGNTASLIISGLQAEDEAEYYCCSYTSSNSLVFGGGTKLTVL
B11: ADI-41162 (antibody, V domains shown)
VH: EVQLVQSGAEVKKPGSSVKVSCKASGVTGGTFSSYAISWVRQAPGQGLEWMGGIMPMFGTTNYAQKFQGRVTITADKSTSTAYMELSSLRSEDTAVYYCARDYRDFSPHLDYYYMDVWGKGTTVTVSS
VL: DIRLTQSPGTLSLSPGERATLSCRASQSVSTSYLAWYQQKPGQAPRLLIYGASNRATGIPDRFSGSGSGTDFTLTISRLEPEDFAVYYCQQYGRTSWTFGQGTKVDIK
B12: ADI-41163 (antibody, V domains shown)
VH: QVQLVQSGGGVVQPGRSLRLSCAASGFPFHSYAMHWVRQAPGKGLEWVAVIWYEGSEKHYADSVQGRFTISRDNSKNMLYLQMNNLRVADTAVYYCARRGAWGFDIWGQGTTVTVSS
VL: DIVMTQTPLSLPVTPGEPASISCRSSQSVLHSTGYNSLDWYLQKPGQSPQLLIFLGSNRASGVPDRFSGSGSGTDFTLKISRVEAEDVGVYYCMQGLQTPYTFGQGTKVEIK
B13: ADI-41164 (antibody, V domains shown)
VH: QVQLVQSGGDLVQPGGSLRLSCAASGFTFSDYEVNWVRQAPGKGLEWLSYISSSGRIIHYADSVRGRFTISRDNAKNSLYLQMNSLRAEDTAVYYCARAAGQWLVTYYYYGMDVWGQGTTVTVSS
VL: QSVMTQSPSTLSASVGDTVTITCRASQSIINRLAWYQQKPGKPPKLLIYKSSSSESGVPSKFSGSGSGTEFTLTINSLQPDDFATYYCQHYNSYLYTFGQGTKVEIK
B14: ADI-41174 (antibody, V domains shown)
VH: EVQLVESGAEVEKPGASVKVSCKASGYTFINYDIIWVRQAPGQGLEWMGWISGYKGNTNYAQKLQGRITMSTDTSTRTAYMELRSLTSDDTAVYYCARVGGTARSTTPYYYGMDVWGQGTTVTVSS
VL: SYVLTQPPSVSVSPGQTARITCSGDAVPKQFSYWYQQKPGQAPVLVIYKDIERPSGIPERFSGSSSGTTVTLTISGVQAEDEADYYCQSAHTSGTYHVFGTGTKLTVL
B15: ADI-41176 (antibody, V domains shown)
VH: EVQLVESGPGLVKPSETLSLTCTVSGGSIGNDYYYWGWIRQPPGKGLEWIGNISYSGSTYYNPSLKSRVTISVGTSKNQFSLKLTSVSAADTAVYHCVGRTFWRDCSSTSCYEYYFDYWGQGTLVTVSS
VL: ETTLTQSPTSLSASVGDRVTITCRASQGISNYLAWYQQKPGKVPKVLIYAASTLQSGVSSRFSGSGSGTGFTLTISNLQPEDVATYYCQNYNSAPWTFGQGTKVEIK
B16: ADI-41194 (antibody, V domains shown)
VH: QVQLQESGPGLVKPSQMLSLTCTVSGDSISSGDYYWSWIRHHPGKGLEWIGYISYSGSTYNNPSLKSRVTVSVDTSKNQFFLKLTSVTAADTAVYYCARATKPYHSYFYMDVWGKGTTVTVSS
VL: EIVLTQSPGTLSLSPGERATLSCRASQSGSRSYLAWYQQRPGQAPRLLIYGASNRATGIPDRFSGSGSGTDFTLTISRLEPEDFAVYYCQQYGNAPTFGGGTKVDIK
B17: ADI-41218 (antibody, V domains shown)
VH: QVQLVQSGAEVKKPGASVKVSCKASGYTFISDGISWVRQAPGQGLEWMGWINPHNENTNYAQKFQGRVTMTTDTSTSTAYLELRGLRSDDTAVYYCARDPYHWSYLDYWGQGTLVTVSS
VL: QSVVTQPPSVSGAPGQRVTITCTGSSSNIGANSDVHWYQQIPGTAPKLLIFGNSNRPSGVPDRFSGSKSGTSASLAITGLQAEDEADYYCQSYDRSLSGSRVFGGGTRLTVL
B18: ADI-41219 (antibody, V domains shown)
VH: EVQLVESGGGLVQPAGSLRLSCAASGFTFSNYVMNWVRQAPGKGLEWVSYISSSGRTIHYADSVKGRFTISRDNAKNSLYLEMNSLRAEDTAVYYCARDPNYGGNSNRFDSWGQGTLVTVSS
VL: DIVMTQTPSSLSASVGDRVTITCRASQTISNYLNWYQQKPGKAPKLLIFAASSLQSGVPSRFSGSGSGTDFTLTISSLQPEDFATYYCQQSYSAPRVTFGPGTKVDIK
B19: ADI-41223 (antibody, V domains shown)
VH: QVQLVESGGGVVQPGRSLRISCAASGFTFSNYGMHWVRQAPGKGLEWVAVLSYDGSNEYYADSVKGRFTISRDNSKNTLYLQMNSLRAEDTAVYYCAKNLNDYNISWYKCFDLWGRGTLVTVSS
VL: QPVLTQPASVSGSPGQSITISCTGTSSDVGGYNYVSWYQHHPGKAPKLIIYDVNNRPSGVSNRFSGSKSGNTASLTISGLQAEDEADYICSSYTTITTFVVFGGGTKLTVL

These binders were tested against Respiratory Syncytial Virus fusion glycoprotein (RSV F) on RSV-A2 virus (Respiratory Syncytial Virus subtype A (RSV-A2)) (assay: cell-based or functional assay).

Binder	Neutralization IC50 (RSV subtype A)
B1	0.37 µg/mL
B2	> 25 µg/mL
B3	> 25 µg/mL
B4	> 25 µg/mL
B5	> 25 µg/mL
B6	> 25 µg/mL
B7	> 25 µg/mL
B8	> 25 µg/mL
B9	> 25 µg/mL
B10	> 25 µg/mL
B11	> 25 µg/mL
B12	> 25 µg/mL
B13	> 25 µg/mL
B14	> 25 µg/mL
B15	> 25 µg/mL
B16	> 25 µg/mL
B17	> 25 µg/mL
B18	> 25 µg/mL
B19	> 25 µg/mL

These binders were tested against RSV postfusion F (postF), F deltaFP (Respiratory Syncytial Virus) (assay: BLI, IgG on anti-human IgG sensor, 100 nM antigen).

Binder	Kd
B1	0.759 nM
B2	0.746 nM
B3	0.857 nM
B4	0.445 nM
B5	1.35 nM
B6	0.478 nM
B7	1.7 nM
B8	9.87 nM
B9	0.337 nM
B10	0.364 nM
B11	0.748 nM
B12	0.604 nM
B13	0.962 nM
B14	0.751 nM
B15	4.07 nM
B16	1.16 nM
B17	0.729 nM
B18	1.28 nM
B19	1.81 nM

These binders were tested against RSV prefusion F (preF), DS-Cav1 (Respiratory Syncytial Virus) (assay: BLI, IgG on anti-human IgG sensor, 100 nM antigen).

Binder	Kd
B1	0.94 nM
B2	4.44 nM
B3	4.34 nM
B4	0.928 nM
B5	4.63 nM
B6	3.52 nM
B9	2.41 nM
B10	2.54 nM
B11	4.06 nM
B12	4.65 nM
